Measurements from paper PMC5986797, “Laminin heparin-binding peptides bind to several growth factors and enhance diabetic wound healing” (Nature Communications, 2018).

Columns and labels:
[1] = biological target: laminin peptide LAMA5_(3417–3436) (human) (UniProt O15230)
[2] = biological target: laminin peptide LAMA3_(3043–3067) (human) (UniProt Q16787)
[3] = biological target: recombinant laminin LAMA3_(2928–3150) protein (human) (UniProt Q16787); test: SPR; LAMA3 2928–3150 immobilised by amine coupling on a C1 chip (~1000 RU); GF flown at 20 μL/min in 0.01 M HEPES pH 7.4, 0.15 M NaCl, 0.005% surfactant P20; Langmuir binding kinetics
[4] = biological target: recombinant human laminin-521 (human) (UniProt O15230); test: SPR; laminin-521 immobilised by amine coupling on a C1 chip (~2000 RU); GF flown at 20 μL/min in 0.01 M HEPES pH 7.4, 0.15 M NaCl, 0.005% surfactant P20; Langmuir binding kinetics

Chain of laminin peptide LAMA5_(3417–3436) (human) (O15230 3417-3436): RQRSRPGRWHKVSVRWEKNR
Chain of recombinant laminin LAMA3_(2928–3150) protein (human) (Q16787 2928-3150): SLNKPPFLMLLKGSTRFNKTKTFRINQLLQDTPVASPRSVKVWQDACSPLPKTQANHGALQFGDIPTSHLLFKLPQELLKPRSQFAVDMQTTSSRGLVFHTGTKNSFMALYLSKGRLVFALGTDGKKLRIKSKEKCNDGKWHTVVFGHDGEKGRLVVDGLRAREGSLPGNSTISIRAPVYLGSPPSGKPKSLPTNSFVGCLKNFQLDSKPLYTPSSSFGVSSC
Chain of laminin peptide LAMA3_(3043–3067) (human) (Q16787 3043-3067): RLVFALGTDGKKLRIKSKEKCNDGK

**Q.** For “vascular endothelial cell growth factor VEGF-A165 (ligand)”, which cumulative release of VEGF-A165 after 5 days from a fibrin matrix with covalently incorporated α2PI1–8-LAMA5 (3417–3436) (without peptide >85% released after 24 h) [1] is on record?
**A.** 31%

**Q.** What about the cumulative release of VEGF-A165 after 5 days from a fibrin matrix with covalently incorporated α2PI1–8-LAMA3 (3043–3067) (without peptide >85% released after 24 h) [2] of the same substance?
**A.** 25%

**Q.** And the Kd [3]?
**A.** 1.2 nM

**Q.** And the Kd [4]?
**A.** 5.8 nM
